Experimental data as given in a protein production outcome set (Wang et al. 2014).

Test: label from the status in PepcDB records

Sequence	protein production
MSENEPAQMIEGRYRIVRNIAEGGMATVYEAIDERLGRTVAIKVMHTQLAKGPHREQFVERFRREANSAASIANPHIVQVYDTGEFNGLDFLVMEYVHGVNLRHEMNAQGTFSVRETLRVVAETLDGLASAHRAGVVHRDIKPENILINDRGHVQITDFGLAKAASQATLSSTGMLLGTAAYLAPEMIENNQATAQGDLYSVGIMAWEMLTGKVPFDSDNPVTLVFKHVHEDVPSVATVCQGIDPSVAAFIAHLTARQVDVRPTDGAAAAEELSQLAAKLPLEAWQYRLHAEPIGGDHTDATAAALVGNIAEQAPLTGVPAGAATFEPSVPAFLADDVASNTADTGGAADVNPPAPPVAPTTALDSSTPADASAPHKTQIMAQSGSETQVLPQAGDAFTRAPALSDEPDVASNGTGPKKQRSKNRFIVLVIVLVLAAIGGTAGWWWFAGPGSYWSVPKPDDVTCDANAGTECSLTGADWATYESTLKAFGIPYKTHEEYSDDVAEGKIISSSVNKTKAVVNSHISKRANQELTVVVSKGVRMATIPKDILDANSANGKNPLNALKKAGFDNVKHDESKDEYSMDTPQGVALTISPDPGTTAKHNDEVTITLSKGPMPVTMPDIVGKTQYEMQAALGELKLTANVTEQYDDKVEAGQVISASQEAGAQLKWGDSVDVVISKGPEMATIPSGLVGKQESAVTKTLESLGFKVKADKVLGGLFGTVRTVKSGDTDLSNGGKTRLRDANGNPTVITLTIV	failed
MKAIIMAGGEGSRLRPLTCKRPKPLVPVANRPVMEYCVDLLRELGIKEVGVTLQYLPQLIEEYFGDGSDFGLHLHYFVEDKPLGTAGSVKNAAAILDETFVVVSGDALTDFDLRPAIARHKESGALATLVLTAVDNPLEYGVVITNPDGSIRSFLEKPSWGEVFSDRVNTGIYILEPEVLELIPEGRPFDFSKDLFPRLLKEKRPLYGVTLSGYWCDIGNLTQYRQAQEDILRGRVKVRVVGQDKGGGVVMGEGVEIAPGARIEGPVLIGGACHIATGAVVGPFTVLGPYTRVEEGATVRRSVLWDNVYTGEGANVRGAVVCSRASLQRRVQVYEGAVIGDGTQVDAGAEVRPEVKVWPEKTLGRETVVHESLIWGRGVARPLFVGSQAPGYLHGDLTPFQVTRLGMAYGASFPPGTTVGLSTFAGGAGEMLYKALAAGLMAAGVQVADLGRLLTPIHRFAVRSLGLDGGCHIKRDAAERDKVWLHLVNSRGHDLNPAAVRKIENLYWREDGRRVQEVPASIYFPGLEGAYRDWLLATLGDHGLKKRALRVALGGQGQVAGVAGTILQDAGAEVIRLDLDPAKTWQAVQEDLPYFAGEIRRYGADLGAALDSNGEELILFTGEGRRVAPAQQMTLLARVYLETHRGASLVLPVTAPRVLEQVAGGLHGRVERVKGHPGIYHEAMARADGETALGQQHLQLDALAALVHILDWLASREESLDSAVAALPPVYTASRTVACPWEAKGRVMRTLISEEPADGVELLDGVQVRHGKGWSLVLPDGETPHYHIYSEAFSQEAAEELAGFYEERLKELIAREKSKGR	failed
KKAKKVRFYRNGDRYFKGIVYAISPDRFRSFEALLADLTRTLSDNVNLPQGVRTIYTIDGLKKISSLDQLVEGESYVCGSIEPFKKLEYTKNVNPNWSVNVKT	not failed
MSQTKIEWADKVWNPVSGCTKISEGCQNCYAERMSKRLAGRCGYPAEEPFKVTPHPEKLGEPLKWRKPLRIFVNSMSDLFHADVPDKFIINVLSMIAEASHHTFLILTKRPERMRELLNHDTIANDVWLQTSRGVNAERSPWPLPNLWLGVSAENQAAADERIPILLQTPAAVRFVSVEPMLSEVNLSRYLKRPICKHWGRNGDPNIYGRYFWGKQALVGAGWVGIDWVICGGETGPGARPMHPVWVRDLRDQCRVAGTPFFFKSFGEYVRVGECMNEEDDEEFYSKSSAAGTNVQRLNLQGGMGYHGPKSIYMQRIGKKRAGRELDGRTWEEFPLEHHHHHH	failed
MRPRLGLLDASVLSFAVLPTDLDFNRHMTNARYLSLMDLGRLDLILRSGMWRLVLRQSLQPVIGGALVRFRHALRPFQPFRLTTRVLAWDARWLFIEHRVETLDGKPACTAVVRAAFVASTGMLPTADLLTRLGYGGAAPDVPAWIAPWLQADLACQPLEHHHHHH	failed
MPEEALIVVDMQRDFMPGGALPVPEGDKIIPKVNEYIRKFKEKGALIVATRDWHPENHISFRERGGPWPRHCVQNTPGAEFVVDLPEDAVIISKATEPDKEAYSGFEGTDLAKILRGNGVKRVYICGVATEYCVRATALDALKHGFEVYLLRDAVKGIKPEDEERALEEMKSRGIKIVQF	not failed
MSEVKKTKVHLISGFLGTGKTTALKSLMAQKDPNEKWVIIVNEFGEIGIDGAVLSDNGIPVAEIAGGCLCCTAGPQMGVTVQKMLRDAKPDRLMIEASGLAHAASVIDELKAKPLDSLLEIGAVFTVVDPRQFINPDYAQQALYKDQIGICDVLAASKTDLCTPEQLAEFHDKAAKLFPPKAKVVEVQNAQLDIQWLDIPVVEKSRYRLKALPDNTMGFQSQGFTFPAGRDFNGEKLTNFFNDLPKMTEGLVRAKGVFQVLGTWVWLNWVDGQWGANQVSWRRDSRFELIAKSFDADLIEQKLKDALELEHHHHHH	not failed
EQNSKEKFKQLFRVLEDTFARPLSPYEIETLNQWIDVDKHDSAIIQAALDEANSLNKLSFKYMDRILLNWKKNNV	failed
MILLSVHDSFLLDHNLPSACDKVFERLLDVTNSSFGFIATLQEDEDGQSLYLPAISNLAWDEETLTWYRHQRRTHGGLRLRKLDNLFGHVVTHNTVVCTNSLLRQKAGRDLPPIHPALHSLLGIPITHNGKTVGMIALANRREGYDQTMIELEHHHHHH	failed
MTNLGDLEIFARVVSTGSMSAAGRALGFSAAVISKRIKRLEDRLGARLLQRTTRQISLTEAGQGFYDRVLGILAGLEEAEAYASGRSSQVQGTLRISAPTSFGRMHIAPHLTGFMKDHPDLKLHIVLTDDFTDIVAEGFDLAIRIGELSDSSLVARKLAPVRRLLCAAPSYVARHGAPTEIGELAKHICLPAHNNDNWKLEGPDGSLSYRPEGPLVTNSSEIIREAVIAGAGIALRSTWDIGRELREGRLVQVLPQWEGSHKLTLSAVYPSRQFLPAKVRQFIDYLAALYGPVPYWEQ	failed
MELRDRIDFLCKTILAIKTAGRLVLGIDGLSRSGKTTLANQLSQTLREQGISVCVFHMDDHIVERAKRYHTGNEEWFEYYYLQWDVEWLTHQLFRQLKASHQLTLPFYDHETDTHSKRTVYLSDSDMIMIEGVFLQRKEWRPFFDFVVYLDCPREIRFARENDQVKQNIQKFINRYWKAEDYYLETEEPIKRADVVFDMTS	not failed
MSKIFVNPSAIRAGLADLEMAEETVDLINRNIEDNQAHLQGEPIEVDNLPEDMGRLHLDDGKSPNPGEMAKVGEGKYREDFQMDEGEDPSLLFQSYLDNVGVQIVRQIRSGERFLKIWSQTVEEIISYVAVNFPNPPGKSSEDKSTQTTGRELKKETTPTPSQRESQSSKARMAAQTASGPPALEWSATNEEDDLSVEAEIAHQIAESFSKKYKFPSRSSGILLYNFEQLKMNLDDIVKEAKNVPGVTRLARDGSKLPLRCVLGWVALANSKKFQLLVESNKLSKIMQDDLNRYTSC	not failed
MPASETQGGPPPDDHTDAEPPPPLPEQSDFADAVLAAMPDPVFVFGPQNTLAWGNPPLRQAVGHSAAALRGKSLPELFGKGDAAAVEQALDAVRAGRDTATAEVALLPREGPPRPCTFTARPLSGDVGPPNCVVGIAR	failed
MVGIRKRKDFFEEFGSELFDNLEEMIEALLEDMGESVPFVYGFSIIRRPGEDPELREFGNISENSEDEENPFPSEIRDPLIDIFESEELIHVLAEIPEIEKEDLLLHATAQNLEIRILGASEYSQDIELPARVDPKSAKASYKNGVLEVTFKRCTEEMPVEIEIN	failed
MSLKGLRRLVLDVLKPHEPKTIVFALKLSELENVDGVNIHLSEIDQATENIKITILGNNLDYEQIKGVIEDMGGVIHSVDEVVAGKIIVESVEGHHHHHH	not failed
MKIFRSIDEIREPLPSPVVTIGNFDGVHLGHREIFRRVKREAARLDGVSMVITFTPHPLKVLGLRKELRLINTYAEKELLIEASGIDCLLTIPFTAEFAAIGAERFVGEILVGRIGVKKLVIGYDYAFGRNREGDVAMLRRMGEEHGFEVEVLEQIASGETVYSSSAVRRMIAAGNVREVVSLIGRHYSVGGTVVHGRRRGKDLGFPTANLRTEKELIPAAGVYAVKVRVDDTIRDGACNIGNNPTFGNEEVTVEVHILDFDGDLYGKEIRVYFVDRVREELRYPDLNALKEGISRDVARCRELLAGVSIIEYRDYLGGDAA	failed
MNTTPFPALSAETLLAVNTVGQWLAQNDFSGEQPYSSDCVVLAGNAVIPTIDAACRIAKAQGVPLLISGGIGHSTPFLYAVIARHPRYHTIRTSGRAEAAILADIANQFWHIPAEKIWLEDRSTNCGENARFSCALIRQAKENINTAIVVQDPTMQRRTIAAFRRVTNDDTDAPRWLSFPGFVPVLRHLNDGTRFANVEEGIWTVERYLSLIAGELPRLRDDETGYGPRGKDFIIHVDIPRDIENAWQVLQADTTLRSALGQRALRLEHHHHHH	not failed
MDESCERVKAIYNEHEYLEAYSRHTDLRVDVDPKLAIGGMWEEIGKLQFEYLTKKGLQCHHELLDIGCGTLRGGRHFIKYLNSSNYYGVDISFKAIESAKELVVEEKLSDKKPQLLLDKNKSLNFNCYLGKTFDFIFAQSVFTHLKPEHISECFENIGQIMNEDSAFYFTYNNSVEYREVGFKNFYYPFDFFENLVERNGFKLKECKSEYAHPRGQIMVEIVKR	failed
MKKLIIAALGLTLILSGCAPKLDSNDKVVQKDDKKAETGIMTKNQISSNYYKTVLPYKASKSRGLVVSNIYSRYDINELESGLMRVSQNKYSPDNYLFQEGQYLDKETLEKWLDRKSEKNPNGLNPESNGDGKDRKPIYLAHILEQDYLKQTDKDTVALGGISIALAMNSVDYYQKEQYGDTFEQEISDSDLLAQGKEMSGTVLNRIRQTKGLENVPVTIAIYKQGPRDAVAPGNFLTYATANGDSLSSWKDVEEKNYVLPSTESAKDHKTDNDNFLNFKKAIEDYYPNFTGVVGRARYEDGQLAELSIDIPLQFYGQAEIIGFTQYVTDLVGQHIPKTADLQVNISTSDGPAALITRKANEDAATAHIYD	failed
KSLTLVLHRDSGSLGFNIIGGRPSVDNHDGSSSEGIFVSKIVDSGPAAKEGGLQIHDRIIEVNGRDLSRATHDQAVEAFKTAKEPIVVQVLRRT	not failed
MTENTFTDPSWLRLSCFIGVLLLCNLWENKLPRKTLTVKRSFRWLNNLSLVALNSAIIALVMPIAAFQAAAIAHDQQWGLFNLLSLPGWLNVLLAVIVLDLIIYVQHLVFHRVKPLWKIHRMHHADLDIDVTTGARFHPIEIIISMVVKITSVFILGVSPLAIVVFEIILNASAMFNHSNAKLALSIDKKLRKVIVTPDMHRVHHSVMVKETHSNFGFFLSVWDRWFGTYRAQPALGHNDVVIGVPEIREASEQRLDKLLTQPFRYREGKGKNVD	not failed
MENTKKSPTYVYALGGLEEIGKNTYVVEHEDEIILIDAGIKFANASLPGFDGTVANFDYLIKNNHKIHSLVVTHGHEDHIGGIPHILRHVKIKTIYAPTLAAKLIERRLSEYKDIKPPRIIVFEDESMYKTKYFEVDFYRVCHSIPDSFGICVKTPNGYIVTTGDFRFDFATAGDETNLAKISQISNRGISVLMCESTSAEIPGFSESERYVIDNIRDYMVNIKGRTFISTFASNLGRVEEIIAIAVGLNKKICIIGKSMEANIKTSRKLGYLNVPESSFITHKELPFYKDHEIVVILTGSQGEKMAALNVMANNNHSKITLKPSDTIILSSNPIPGNYAQVEAMVNKLYKLGLTVYENSPNKKIHASGHATRSEHQLMIKAINPSYLFPIHGEYKMFRALKQNAVDQGFDKDHVIIAPNGQKLQLLDGVLSHTNIYVDAEPKFINGYEISSKISKLLSERVVLSSDGILNLVLNADFKKAKLNSAVSISTRGCFFAKESTNLINKISNVAKSSLEEALAKKEFDEKKLKEIVSGNVKSIVWKWRKKNPIINVTIINNDLVEQFRKDNNYVEFIKQAEVEEIEQEVDIDDLISNGL	failed
